Laboratory results from patent US20150266963A1 (ARGEN X B V, published 2015).
Positions count from the first letter of the chain named. One block for each binder: values may come before it.

What was measured:
[1] = target: T1, rhesus recombinant CD70 (FLAG-TNC-rhesus CD70) (rhesus); test: Biacore; rhesus recombinant CD70 on chip; Fab injected
T1 construct: also called rhesus Flag-TNC-CD70

[2] = target: T2, recombinant human CD70 (Flag-TNC-CD70) (human, UniProt P32970 39-193); test: Biacore; recombinant human CD70 on CM5 chip; Fab injected
T2 construct: extracellular domain; Captured by anti-Flag mAb in ELISA; as 'recombinant human CD70' immobilised on Biacore CM5 chips; TNC is for trimerisation; also called recombinant CD70; human recombinant CD70; not shown: Flag tag and TNC trimerisation domain
T2 sequence (looked up): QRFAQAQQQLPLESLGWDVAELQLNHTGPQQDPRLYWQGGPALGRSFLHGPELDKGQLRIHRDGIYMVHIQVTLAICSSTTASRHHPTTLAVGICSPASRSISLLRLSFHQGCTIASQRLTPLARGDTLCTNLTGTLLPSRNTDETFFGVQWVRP
Protocol: Off-rates of the purified llama-derived anti-CD70 blocking Fabs were determined using the Biacore. Recombinant human CD70 was immobilized on a CM5 Biacore chip. The immobilization was performed in accordance with a method provided by Biacore and by using the NHS/EDC kit (Biacore AB): after activation of the chip, a solution of 50 μg/ml of recombinant CD70 in 10 mM acetate buffer with pH of 5 was prepared and 1 μl of this solution (50ng) was injected resulting in a surface density of approximately 1000 RU.
Fabs for the CD70 mAbs ARGX-110, MDX2H5 and SGN70 were prepared by […] digestion (SGN70 and MDX69A7 are described elsewhere herein, MDX2H5, also referred to as MDX1411, is described in WO2008/074004 FIGS. 1A and 1B). Fabs, at a concentration of approximately 100-400 μg/ml, were diluted 6-fold in hepes-buffered saline (0.1M Hepes, 1.5M NaCl, 30 mM EDTA, 0.5% v/v surfactant P20). They were injected (30 μl) and passed through the flow cells at a flow rate of 30 μl/min. After binding of the Fab to CD70, the off-rate was monitored for a period of 10 minutes. After the dissociation, the flow cell surfaces were regenerated by injecting 5 μl of 10 mM NaOH. Sometimes multiple injections of NaOH were needed to regenerate the surfaces depending on the affinity of the Fabs. Off-rate analysis was done by applying the BIAevaluation software. First, the sensogram of the blank runs were subtracted from those obtained with the coated flow cell. […] Moreover, the off-rate of CD27 for CD70 was determined as well.

[3] = target: T2, recombinant human CD70 (Flag-TNC-CD70); test: inhibition ELISA: Flag-TNC-CD70 captured by anti-Flag mAb, Fab titrated, remaining binding of CD27-Fc detected
Protocol: (§1) From selected phage transfected into TG1, individual colonies were picked randomly for growth in 96 well plates. After IPTG induction according to standard protocols periplasmic fractions (penis) containing Fabs were prepared. […] In this assay, Flag-TNC-CD70 is captured by an anti-Flag mAb and binding of CD27-Fc is detected via a biotinylated anti-CD27 mAb and strep-HRP in the absence or presence of CD70 Fabs (FIGS. 2 and 3) or CD70 mAbs (FIG. 4). In FIG. 2B it can be seen that 27B3, which has an identical VH as 9D1, but contains a somewhat different light chain, seems to block binding of CD27 to CD70 more efficiently, which was in line with the better off rate of this Fab as measured on Biacore (data not shown). Table 3 indicates the blocking potency (expressed as IC50) for the various llama-human chimeric mAbs tested in the CD70 inhibition ELISA. […] FIG. 3 is a composite of an experiment testing llama CD70 Fabs for blocking activity (in the inhibition ELISA, see white bars) and for CD70 binding (binding ELISA, black bars). For the binding ELISA, Flag-TNC-CD70 is captured by an anti-Flag mAb and binding of the Fabs is detected using an anti-myc-HRP mAb, which recognizes the MYC tag fused to the C-terminus of the Fd fragment. For comparison purposes, known monoclonal antibodies to CD70 (SGN70 described in US 2010/0129362 A1, clone 1F6; and MDX69A7 described in WO2008/074004 FIGS. 5A and 5B) were tested in parallel. […] Of interest is clone 59D10, which as Fab has no blocking activity, but when converted into a chimeric IgG was antagonistic (see Table 3). Amino acid sequences of the VH and VL domains of binding and blocking llama-derived Fab clones are shown elsewhere herein (Tables 6-9).

[4] = target: T2, recombinant human CD70 (Flag-TNC-CD70); test: inhibition ELISA; Flag-TNC-CD70 captured by anti-Flag mAb; competitor CD27-Fc
Protocol: as §1

[5] = target: T3, human CD70 expressed on the surface of cells (human, UniProt P32970 1-193); test: cell-based or functional assay
T3 sequence (looked up): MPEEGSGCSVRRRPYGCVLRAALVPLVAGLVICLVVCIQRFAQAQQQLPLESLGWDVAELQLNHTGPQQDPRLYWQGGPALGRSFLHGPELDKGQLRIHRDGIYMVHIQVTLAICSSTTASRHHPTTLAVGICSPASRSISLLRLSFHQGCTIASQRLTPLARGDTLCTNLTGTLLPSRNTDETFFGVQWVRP

koff [1]: 0.00032 s⁻¹
B1: 1C2 Fab (Fab, V domains shown)
VH: ELQVVESGGGLVQPGGSLRLSCAASGFTLSNYWMHWVRQAPRKGLEWVSTISTDNSRTYYADSVKGRFTISRDHAKNTLILQMNSLKSEDTAVYYCIRGSDYEHWGQGTQVTVSS
VL: QTVVTQEPSLSVSPGGTVTLTCGLSSGSVTTTNYPGWFQQTPGQAPRTLIYSTSSRHSGVPSRFSGSISGNKAALTITGAQPEDEADYYCALEEIGSYTYMFGGGTHLTVLG
notes: Llama-derived Fab

koff [2]: 8e-05 s⁻¹ | IC50 (read off the curve) [3]: ~0.04 mg/L
B2: 19G10 Fab (Fab, V domains shown)
VH: EVQLQESGGGVVQPGGSLRLSCAASGFTFDDYAMSWVRQAPGKGLEWVSSIYMYDSSTYYADSVKGRFTISTDNAKNTVYLQMNSLKSEDTAVYYCAKDINRSYGSSWSHFGPIFSSWGQGTQVTVSS
VL: NFMLTQPSAVSVSLGQTARITCQGGYYTHWYQQKPGQAPVLVIYVNNNRPSGIPERFSGSSSGNTATLTISGAQAEDEAAYYCQSGSSSTIPVFGGGTKLTVLG
notes: Llama-derived Fab

koff [2]: 0.0001 s⁻¹ | IC50 (read off the curve) [3]: ~0.04 mg/L
B3: 24B6 Fab (Fab, V domains shown)
VH: B2 VH
VL: B2 VL with N1Q, F2P, M3V, V45I, S61I, A75V, A80D
notes: Llama-derived Fab

koff [1]: 0.0002 s⁻¹ | koff [2]: 0.00019 s⁻¹
B4: 9E1 Fab (Fab, V domains shown)
VH: B2 VH
VL: QAVVTQEPSLSVSPGGTVTLTCGLTSGSVTSSNYPDWYQQTPGQAPRLLIYNTNSRHSGVPSRFSGSISGNKAALTITGAQPEDEADYYCNLYMGSGGSKVFGGGTKLTVLG
notes: Llama-derived Fab

koff [1]: 0.0005 s⁻¹ | koff [2]: 8e-05 s⁻¹ | IC50 (read off the curve) [3]: ~0.2 mg/L
B5: 5F4 Fab (Fab, V domains shown)
VH: EVQVQESGGGLVHPGGSLKLSCAASGFTFDTYAMSWVRQAPGKGLEWVSAISWSGGETFYAESMKGRFTISRNNAKNTLYLQMNSLKSEDTAVYYCARGMGLAEGLTDWGQGTQVTVSS
VL: QAVVTHPPSLSASPGSSVRLTCTLISGDNIGGYDISWYQQKTGSPPRYLLYYYSDSYKHQSSGVPSRFSGSKDASANAGLLLISGLQSEDEADYYCSAYKSGSYKAPVFGGGTHLTVLG
notes: Llama-derived Fab

koff [1]: 0.00029 s⁻¹ | koff [2]: 0.00033 s⁻¹ | IC50 (read off the curve) [3]: ~1 nM
B6: 4D2 Fab (Fab, V domains shown)
VH: QVQLQESGPGLVKPSQTLSLACTVSGGSITTSYYYWSWIRQPPGKGLEWMGAIGSRGSTYYSPSLKTRTSISRDTSKNQFTLQLSSVTPEDTAVYYCARVTGEITYNSGSYYYTLNLFDYWGQGTQVTVSS
VL: QSVLTQPPSLSASPGSSVRLTCTLSSGNSVGNYDISWYQQKAGSPPRYLLYYYSDSYKNQGSGVPSRFSGSKDPSANAGLLLISGLQAEDEADYYCSVSNSGTYKPVFGGGSKLTVLG
notes: Llama-derived Fab

koff [1]: 0.0002 s⁻¹ | koff [2]: 0.00048 s⁻¹ | IC50 (read off the curve) [3]: ~0.2 mg/L
B7: 9D1 Fab (Fab, V domains shown)
VH: EVQLVESGGGLVQPGGSLRLSCAASGFTFSVYYMNWVRQAPGKGLEWVSDINNEGGTTYYADSVKGRFTISRDNAKNTLTLQMNSLKPEDTALYYCVRDAGYSNHVPIFDSWGQGTQVIVAS
VL: QAVVTQEPSLSVSPGGTVTLTCGLSSGSVTSSHYPGWYQQTPGQAPRLLIFNTNSRHSGVPSRFSGSISGNKAALTITGAQPEDEADYYCALLNIDDGSTMFGGGTHLTVLG
notes: Llama-derived Fab

koff [2]: 0.00016 s⁻¹ | IC50 (read off the curve) [3]: ~0.04 mg/L
B8: 24F2 Fab (Fab, V domains shown)
VH: B7 VH
VL: QSALTQPSAVSVSLGQTARITCRGDTLRNYHANWYRQKPGQAPVLVIYGDDIRPSGIPERFSGSRLGGTATLTVSGAQAEDEADYYCQSSDSSGYRVVFGGGTKLTVLG
notes: Llama-derived Fab

IC50 [4]: 0.092 mg/L | IC50 (ng/ml), IL-8 secretion in Raji / HT1080-CD27 co-culture assay [5]: 19 ng/mL
B9: 5B2 chimeric llama-human mAb (antibody, human IgG1, V domains shown)
VH: QVQLVESGGDLVQPGGSLRLSCAASGFTVSNPAMSWVRQAPGKGLEWVSEITNYGYNRYYADSVKGRFTISTDNAKNTLYLQMNSLRSEDSAVYYCTASLGLEYGYGDWGQGTQVTVSS
VL: QSALTQPPSVSGTLGKTLTISCAGTSSDVGYGNYVSWYQQLPGTAPKLLIYRVSTRASGMPDRFSGSKSGNTASLTISGLQSEDEADYYCASYTTNNKPVFGGGTHLTVLG

IC50 (read off the curve) [3]: ~2 nM
B10: 5B2 (Fab, V domains shown)
VH: B9 VH
VL: B9 VL
notes: also called 5B2 Fab

koff [1]: 4e-05 s⁻¹ | koff [2]: 0.0001 s⁻¹
B11: 57B6 Fab (Fab, V domains shown)
VH: QLQLVESGGGLVQPGGSLRLSCAASGFSFSHYAMSWVRQAPGKGLEWVSGDNTYDGGTRYQDSVKGRFTISRDNGKNTLYLQMNSLKPEDTAVYYCAKDTGRGIMGEYGMDYWGKGTLVTVSS
VL: QTVVTQEPSLSVSPGGTVTLTCGLKSGSVTSSNYPAWYQQTPGQAPRLLIYNTNSRHSGVPSRFSGSISGNKAALTITGAQPEDEADYYCALYMGSGSANAMFGGGTHLTVLG
notes: Llama-derived Fab

koff [1]: 0.00061 s⁻¹ | koff [2]: 0.00028 s⁻¹ | IC50 (read off the curve) [3]: ~4 nM
B12: 9B2 Fab (Fab, V domains shown)
VH: QLQVVESGGGLMQPGGSLRLSCAASGFTFSGSAMSWVRQAPGKGLEWVSSIYSHSMYTYYADSVKSRFTISTDNAKNTLYLQMNSLKPDDTAVYYCAASSDYEGLFVSWGQGTQVTVSS
VL: QAVLTQPPSLSASPGSSVRLTCTLNSANSVGSYDISWYQQKAGSPPRYLLYYYSDSLSHQGSGVPSRFSGSTDASANAGLLLISGLQPEDEADYYCSAYNRGSHVFGGGTKLTVLG
notes: Llama-derived Fab

koff [1]: 0.00018 s⁻¹ | koff [2]: 0.00018 s⁻¹ | IC50 (read off the curve) [3]: ~2 nM
B13: 9G2 Fab (Fab, V domains shown)
VH: B12 VH with L2V, V4L, G31S, H54D, M56S, A98G, L105S, V107A
VL: B12 VL with A2S, L4V, N25S, A27G, S32N, L57V, S58K, T72S, N100K, R101S
notes: Llama-derived Fab
